Reference: patent US20180016324A1 (Regeneron, published 2018)
Residue numbers refer to the chain shown, from its start.

B1: H4H25640P (antibody, V domains shown)
VH: QVQLVESGGGVVQPGRSLRLSCAASGFTFSYYGMHWVRQAPGKGLEWVAVILYDGSNKFYSDSVKGRFTISRDNSRNTLYLQMNSLRLEDTAVYYCAKDYGGRFDYWGQGTLVTVSS
VL: EIVLTQSPGTLSLSSGERATLSCRASQSVSNKYLAWYQQKPGQVPRLLIYGASNRATGIPDRFSGSGSGTDFTLTINRLEPEDFAVFYCQQYGSTPSTFGQGTKVEIK
B2: H4H25598P (antibody, V domains shown)
VH: EVQLVESGGGLVQPGGSLRLSCAASGFTVSSNYMSWVRQAPGSGLEWVSVIYSGGITHYIGSVKGRFTISRHNSKNTLYLQMNSLRAEDTAMYYCARERYSGITGNPYGFDFWGQGTMVTVSS
VL: DIQLTQSPSFLSASVGDRVTITCWASQDISSYLAWYQQKPGIAPKLLIYSASTLQSGVPSSFSGSGSGTEFTLTISSLQPEDFATYYCQQLNIYPFTFGPGTKVDIK
B3: H4H25602P (antibody, V domains shown)
VH: B2 VH with I60V, G61D, F112I
VL: B2 VL with S50A, S61R
B4: H4H25704N (antibody, V domains shown)
VH: QVQLVESGGGVVQSGRSLRLSCAASGFTFIYYGMHWVRQAPGKGLEWVAVISYDGSDRYYADSVKGRFTISRDDSKNTLYLQMNSLRPEDTAVYYCAKDRGGRFDYWGQGTLVTVSS
VL: EIVLTQSPGTLSLSPGERATLSCRASQSVNNNYLAWYQQKPGQAPRLLIYGASSRATGIPDRFGGGGSGTDFTLTISRLEPEDFAVYYCQRYGNSPLTFGGGTKVEIK
B5: H4H25617P (antibody, V domains shown)
VH: EVQLVESGGGLVQPGGSLRLSCSASGFTFTTYAMSWVRQAPGRGLEWVSSISGTGVSTYYADSVKGRFTISRDNSKNALYLQMNSLTAEDTAVYYCAKDSGTYHWGQGTLVTVSS
VL: EIVLTQSPATLSLSPGERATLSCRASQSVDSYLAWYQQKPGQAPRLLIYDASNRATGIPARFSGSGSGTDFTLTISSLESEDFAVYYCQQRRNWPQFTFGGGTKVEIK
B6: H4H25619P (antibody, V domains shown)
VH: QVQLVESGGGVVQPGRSLRLSCTASGFTFSTYGMHWVRHVPGKGLEWVAIVWYDGSDKSYAASVKGRFTISRDNSKNTLFLQMNSLRAEDTAVYYCARQGTYYYYGMDVWGQGTTVTVSS
VL: DIQMTQSPSSLSASVGDRVTITCRSSQTITNYLNWYQQRPGKAPKLLIYAASSLQSGVPSRFSGSGSGTDFTLTISSLQPEDFATYYCQQSYSTPPITFGQGTKLEIKR
B7: H4H25622P (antibody, V domains shown)
VH: QVQLVESGGGVVQPGRSLRLSCAASGFTFSSYGMHWVRQAPGKGLEWLAIIWYDGTNKQYVDSVKGRFTISRDNSKNTLYLQLNSLRAEDTAVYYCARQDFYYYYGMDVWGQGTTVTVSS
VL: not shown
B8: H2aM25710N (antibody, V domains shown)
VH: EVQLLESGGGLVQPGGSLRLSCAASGFTVSNNYMSWVRQAPGKGLEWVSVIYSGGRTNYGDSVKGRFTISRDNSKNTLYLQMNSLRAEDTAVYYCARENYDFWSGDPYGWDVWGQGTTVTVSS
VL: DIQMTQSPSSLSASVGDRVTITCRASQDISNYLAWFQQKPGKAPKSLIYGASSLQRGVPSKFRGSGSGTDFTLTISSLQPEDFASYYCQQYNSYPYTFGQGTKLEIK

The binders below were run against T1, ZIKV (prM80E) with a C-terminal myc-myc-hexahistidine tag (Zika virus, UniProt A0A024B7W1 104-694) (assay: SPR, mAb captured, 37C).
T1 construct: also called ZIKV (prM80E)-mmH; ZIKV-mmH

Row | Binder | Kd | koff | kon | t½
1 | B1 | 1.27 nM | 0.00186 s⁻¹ | 1.47e+06 M⁻¹ s⁻¹ | 6.2 min
2 | B2 | 0.7 nM | 0.000284 s⁻¹ | 406000 M⁻¹ s⁻¹ | 40.7 min
3 | B3 | 0.745 nM | 0.000284 s⁻¹ | 381000 M⁻¹ s⁻¹ | 40.6 min
4 | B4 | 0.621 nM | 0.0012 s⁻¹ | 1.93e+06 M⁻¹ s⁻¹ | 9.6 min
5 | B5 | 16.1 nM | 0.00729 s⁻¹ | 452000 M⁻¹ s⁻¹ | 1.6 min
6 | B6 | 5.59 nM | 0.00108 s⁻¹ | 193000 M⁻¹ s⁻¹ | 10.7 min
7 | B7 | 9.07 nM | 0.00267 s⁻¹ | 295000 M⁻¹ s⁻¹ | 4.3 min

Target: T1, ZIKV (prM80E) with a C-terminal …
Assay: SPR, mAb captured, 37C
Remark: another data set of the same source

Row | Binder | t½ pH 7.4/t½ pH 5.0 | t½ pH 7.4/t½ pH 5.5
8 | B1 | 2 | 2.3
9 | B2 | 288 | 187
10 | B3 | 272 | 134
11 | B4 | 0.8 | 0.9
12 | B5 | 0.8 | 0.8
13 | B6 | 0.3 | 0.5
14 | B7 | 0.2 | 0.6

These binders were tested against T1, ZIKV (prM80E) with a C-terminal … (assay: SPR, mAb captured, 37C, pH 7.4).

Row | Binder | koff | t½
15 | B1 | 0.00172 s⁻¹ | 6.72 min
16 | B2 | 0.000397 s⁻¹ | 29.1 min
17 | B3 | 0.000356 s⁻¹ | 32.5 min
18 | B4 | 0.00121 s⁻¹ | 9.56 min
19 | B5 | 0.00602 s⁻¹ | 1.92 min
20 | B6 | 0.00193 s⁻¹ | 6 min
21 | B7 | 0.00318 s⁻¹ | 3.63 min

These binders were tested against T1, ZIKV (prM80E) with a C-terminal … (assay: SPR, mAb captured, 37C, pH 6.0 chase).

Row | Binder | koff | t½
22 | B1 | 0.00323 s⁻¹ | 3.58 min
23 | B2 | 0.0129 s⁻¹ | 0.9 min
24 | B3 | 0.0122 s⁻¹ | 0.95 min
25 | B4 | 0.00131 s⁻¹ | 8.85 min
26 | B5 | 0.00494 s⁻¹ | 2.34 min
27 | B6 | 0.00102 s⁻¹ | 11.3 min
28 | B7 | 0.00234 s⁻¹ | 4.93 min

These binders were tested against T2, ZIKV prM/E polyprotein on virus-like particles (VLPs) from HEK293T/17 cells (Zika virus, UniProt A0A024B7W1 123-795) (assay: MSD ECL, VLPs on plate; high concentrations excluded from fit).
T2 construct: also called ZIKV prM/E VLPs; Zika prM/E VLPs

Row | Binder | EC50
29 | B1 | 0.102 nM
30 | B4 | 0.18 nM

The binders below were run against ZIKV E protein with escape mutation S302F (Zika virus) (assay: cell-based or functional assay).

Row | Binder | IC50 (read off the curve)
31 | B6 | ~1 nM

These binders were tested against T3, ZIKV envelope glycoprotein (E) of strain MR766 (Uganda 1947) (Zika virus, UniProt Q32ZE1 291-790) (assay: cell-based or functional assay).

Row | Binder | neutralization IC50, Vero cells
32 | B8 | 0.017 nM

Target: T1, ZIKV (prM80E) with a C-terminal …
Assay: SPR, mAb captured, 37C
Remark: another data set of the same source

Row | Binder | t½ pH 7.4/t½ pH 6.0
33 | B1 | 1.9
34 | B2 | 32.4
35 | B3 | 34.1
36 | B4 | 1.1
37 | B5 | 0.8
38 | B6 | 0.5
39 | B7 | 0.7

Each binder was assayed against T2, ZIKV prM/E polyprotein on virus-like … (assay: MSD ECL, VLPs on plate).

Row | Binder | EC50
40 | B2 | 0.426 nM
41 | B3 | 1.56 nM
42 | B5 | 0.755 nM
43 | B6 | 1.92 nM
44 | B7 | 2.44 nM
45 | B8 | 0.244 nM

The binders below were run against T1, ZIKV (prM80E) with a C-terminal … (assay: SPR, mAb captured, 37C, pH 5.0 chase).

Row | Binder | koff | t½
46 | B1 | 0.00337 s⁻¹ | 3.4 min
47 | B2 | 0.114 s⁻¹ | 0.1 min
48 | B3 | 0.097 s⁻¹ | 0.1 min
49 | B4 | 0.000959 s⁻¹ | 12 min
50 | B5 | 0.00464 s⁻¹ | 2.5 min
51 | B6 | 0.000548 s⁻¹ | 21.1 min
52 | B7 | 0.000704 s⁻¹ | 16.4 min

Target: T3, ZIKV envelope glycoprotein (E) of …
Assay: cell-based or functional assay
Remark: another data set of the same source

Row | Binder | neutralization IC50, Vero cells
53 | B1 | 0.0279 nM
54 | B2 | 0.0545 nM
55 | B3 | 0.0531 nM
56 | B4 | 0.046 nM
57 | B5 | 0.166 nM
58 | B6 | 0.171 nM
59 | B7 | 0.188 nM

Each binder was assayed against ZIKV envelope glycoprotein (E) of strain FLR (Colombia 2015) (Zika virus) (assay: cell-based or functional assay).

Row | Binder | neutralization IC50, Vero cells
60 | B1 | 0.099 nM
61 | B2 | 0.553 nM
62 | B3 | 0.63 nM
63 | B4 | 0.0758 nM
64 | B5 | 0.552 nM
65 | B6 | 1.26 nM
66 | B7 | 1.58 nM

These binders were tested against ZIKV envelope glycoprotein (E) of strain PRVABC59 (Puerto Rico 2015) (Zika virus) (assay: cell-based or functional assay).

Row | Binder | neutralization IC50, Vero cells
67 | B1 | 0.166 nM
68 | B2 | 0.398 nM
69 | B3 | 0.501 nM
70 | B4 | 0.278 nM
71 | B5 | 0.543 nM
72 | B6 | 1.14 nM
73 | B7 | 1.28 nM

These binders were tested against T1, ZIKV (prM80E) with a C-terminal … (assay: SPR, mAb captured, 25C).

Row | Binder | Kd | koff | kon | t½
74 | B1 | 0.597 nM | 0.000722 s⁻¹ | 1.21e+06 M⁻¹ s⁻¹ | 16 min
75 | B2 | 0.156 nM | 4.49e-05 s⁻¹ | 289000 M⁻¹ s⁻¹ | 257 min
76 | B3 | 0.07 nM | 1.95e-05 s⁻¹ | 286000 M⁻¹ s⁻¹ | 592 min
77 | B4 | 0.27 nM | 0.000359 s⁻¹ | 1.33e+06 M⁻¹ s⁻¹ | 32.2 min
78 | B5 | 7.9 nM | 0.00197 s⁻¹ | 250000 M⁻¹ s⁻¹ | 5.9 min
79 | B6 | 3.14 nM | 0.000516 s⁻¹ | 164000 M⁻¹ s⁻¹ | 22.4 min
80 | B7 | 5.31 nM | 0.00133 s⁻¹ | 251000 M⁻¹ s⁻¹ | 8.7 min

Each binder was assayed against T1, ZIKV (prM80E) with a C-terminal … (assay: SPR, mAb captured, 37C, pH 5.5 chase).

Row | Binder | koff | t½
81 | B1 | 0.00402 s⁻¹ | 2.87 min
82 | B2 | 0.0741 s⁻¹ | 0.16 min
83 | B3 | 0.0476 s⁻¹ | 0.24 min
84 | B4 | 0.00107 s⁻¹ | 10.8 min
85 | B5 | 0.00465 s⁻¹ | 2.48 min
86 | B6 | 0.000953 s⁻¹ | 12.1 min
87 | B7 | 0.00178 s⁻¹ | 6.49 min
